This note sets out measurements from patent publication US20120252742A1.

In assay [1] the target is SIY peptide on H-2Kb (mouse). Description: IL-2 release; transduced 58-/- cells, SIY peptide on T2-K^b (FIG. 17); fusion: CD28, CD3ζ, LCK.
Assay [2] addresses SIY peptide on H-2Kb (mouse). As to the kind of experiment: value stated in the legend of FIG. 16; method not given.
The target in assay [3] is SL9 (HIV-Gag)/HLA.A2 streptavidin:phycoerythrin tetramer (human immunodeficiency virus; human). As to the kind of experiment: cell-based or functional assay.
Assay [4] has as its target human immunodeficiency virus (HIV) Gag protein (SL9) peptide on HLA-A*02:01 (human). As to the kind of experiment: SL9 peptide titrated on T2 cells, stained with 100 nM multi-biotinylated scTCR (FIG. 11C); soluble, other.
The target in assay [5] is SIY peptide on H-2Kb (mouse). As to the kind of experiment: value cited from Chervin et al. 2009 (ref 18); method not given.
Assay [6] addresses SIY peptide on K^b of antigen presenting cells (T2-K^b). As to the kind of experiment: cell-based or functional assay.
For assay [7], the target named is SL9 peptide on HLA.A2 of peptide-loaded HLA.A2+ cells (T2) (human immunodeficiency virus; human). Description: flow cytometry: SL9 peptide titrated on T2 cells, 100 nM biotinylated scTCR; the reference value is from the literature. (In general: Flow cytometry measures light scatter and fluorescence of single cells or particles in a stream.)
For assay [8] the target is unchanged. As to the kind of experiment: flow cytometry: T2 cells loaded with 10 uM SL9, titration of biotinylated scTCR, streptavidin:PE.
Assay [9] has the same target. Description: flow cytometry: T2 cells loaded with 10 uM SL9, biotinylated scTCR, streptavidin:PE.

The substance “m33 scTCR with 2C-T7 stabilizing mutations” returned a lowest activating peptide concentration in [1] of 1 nM. The substance 2C (full-length αβ TCR) showed a Kd in assay [2] of 30000 nM. Take “868-Z11 scTCR (Vβ-linker-Vα) fused to CD28, CD3ζ, LCK, on the surface of transduced T cells”: the T cell activation by plate-bound pepMHC tetramer, EC50 in assay [3] worked out at 4 nM. 868-Z11 had a lowest SL9 peptide concentration detected in assay [4] of 10 nM. m33 (full-length αβ TCR): the Kd in assay [2] stood at 30 nM; in [5], 16 nM.

Consider “m33 scTCR (Vα-linker-Vβ) fused to CD28, CD3ζ, LCK, on the surface of 58-/- T cell hybridoma”, for which the IL-2 release, lowest SIY peptide concentration that activates in assay [6] turned out to be 1 nM. “soluble, biotinylated 868-Z11 single-chain TCR expressed in E. coli (pET28a) and refolded” displayed a fold improvement in limit of detection relative to the full-length 868 TCR variant described by Varela-Rohena et al in [7] of 5 fold. Further, the half-maximal effective concentration (EC50) in assay [8] was 4 nM. The same substance gave a lowest scTCR concentration at which peptide loaded cells were detected in [9] of 0.1 nM.

Broadly, the Kd is the equilibrium constant for the complex coming apart. Read a high Kd as a looser complex. By EC50 is commonly meant the midpoint of the concentration-response curve. Low readings indicate an effect from little substance, high ones a need for much substance.
